The values below come from PMC3912212.

The target of assay [1] is paclitaxel-stabilized microtubules (bovine brain tubulin) (bovine (purified from juvenile bovine brains)) (UniProt Q6B856). Briefly: calculated from the TIRF intensity titration (KD) and the single-molecule lifetimes (koff); association rate constant inferred from KD and koff, not measured directly.
The target in assay [2] is subtilisin-digested microtubules (C-terminal tails of tubulin removed) (bovine (purified from juvenile bovine brains)).
The target in assay [3] is paclitaxel-stabilized microtubules (bovine brain tubulin) (bovine (purified from juvenile bovine brains)) (UniProt Q6B856).
The target is the same in assay [4]. Briefly: TIRF microscopy, fluorescence intensity on microtubules; one flow chamber containing both brightly-labeled microtubules and dimly-labeled, subtilisin-digested microtubules; CCA-GFP in solution; line-scan intensity, mean ± SD.
Assay [5] has the same target. In words: TIRF microscopy, single-molecule assay for microtubule-associated proteins; rhodamine-labeled microtubules immobilised on the surface by anti-rhodamine antibodies; CCA-GFP in solution; lifetimes of tracked single molecules, exponential fit, corrected for photobleaching.
The target is the same in assay [6]. Briefly: TIRF microscopy, fluorescence intensity on microtubules against concentration; fluorescently-labeled microtubules adhered to cover glass; CCA-GFP introduced at increasing concentrations and allowed to equilibrate; line-scan intensity fit to a Michaelis-Menten curve (binding isotherm).
For assay [7] the target is unchanged. In words: TIRF microscopy, fluorescence intensity on microtubules; surface-immobilized microtubules; CCA-GFP with no added salt, 25 mM KCl or 50 mM KCl; line-scan intensity, mean ± SD.

As a reminder, the kon is a measure of how fast the partners come together. One may read the koff as the rate constant with which the complex falls apart. High values mean fast dissociation, low ones slow dissociation. What is called Kd is the constant that tells how readily two partners part at equilibrium. A low value points to higher affinity. As to “CCA-GFP, minimal chromosome passenger complex of INCENP a.a. 491-873 (coiled-coil domain and INBox) and Aurora-B (from UniProt O13024 491-873; Q6DE08 1-361)”, the kon in assay [1] is 8.25e+06 M⁻¹ s⁻¹. Besides, the normalized 32P band intensity of the INBox motif (CCA auto-phosphorylation) in an in vitro kinase assay with 3 µM subtilisin-digested microtubules; buffer control 0.62, undigested microtubules 0.92 in assay [2] is 0.64 a.u. Also, the normalized 32P band intensity of the INBox motif (CCA auto-phosphorylation) in an in vitro kinase assay with 3 µM microtubules; buffer control 0.62 in assay [3] is 0.92 a.u. Also, the GFP intensity on undigested microtubules in assay [4] came to 375 a.u. In assay [5], this substance showed a koff of 0.66 s⁻¹ and a mean residence time on the lattice of 1.5 s. Also, the Kd in assay [6] is 80 nM. Further, in assay [7], the CCA-GFP intensity on microtubules, 25 mM KCl added was found to be 117 a.u; the CCA-GFP intensity on microtubules, 50 mM KCl added came to 27 a.u; the CCA-GFP intensity on microtubules, no added salt worked out at 277 a.u.
